From the supplement of paper PMC9233669
Fewer inactive variants are shown than the library holds.

What was measured:
biotinyl-Val-oxazolone = assay: self-aminoacylation, catalytic enhancement (BVO) (fold over background); higher = more active; k-Seq, kA / k0A0; sequences stand for … in GGGAAUGGAUCCACAUCUACGAAUUC…UUCACUGCAGACUUGACGAAGCUG
How it was run: (§1)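 Each biotinyl-aminoacyl-oxazolone, at 2–1250 μM, was incubated with mutagenized RNA pools (0.43 μM) carrying a 21-nt variable region. The 50 μL reactions contained HEPES/NaCl/KCl/MgCl2/CaCl2 buffer with 5% acetonitrile at pH 6.9–7.0 and ran for 90 minutes at room temperature. After streptavidin capture, RNA was measured by qPCR in triplicate and by Illumina sequencing, and catalytic enhancement was calculated as median kA over the uncatalyzed rate from a pseudo-first-order fit of per-sequence fraction reacted.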

biotinyl-Phe-oxazolone = assay: self-aminoacylation, catalytic enhancement (BFO) (fold over background); higher = more active; k-Seq, kA / k0A0; sequences stand for … in GGGAAUGGAUCCACAUCUACGAAUUC…UUCACUGCAGACUUGACGAAGCUG
How it was run: as §1

biotinyl-Ile-oxazolone = assay: self-aminoacylation, catalytic enhancement (BIO) (fold over background); higher = more active; k-Seq, kA / k0A0; sequences stand for … in GGGAAUGGAUCCACAUCUACGAAUUC…UUCACUGCAGACUUGACGAAGCUG
How it was run: as §1

biotinyl-Met-oxazolone = assay: self-aminoacylation, catalytic enhancement (BMO) (fold over background); higher = more active; k-Seq, kA / k0A0; sequences stand for … in GGGAAUGGAUCCACAUCUACGAAUUC…UUCACUGCAGACUUGACGAAGCUG
How it was run: as §1

biotinyl-Leu-oxazolone = assay: self-aminoacylation, catalytic enhancement (BLO) (fold over background); higher = more active; k-Seq, kA / k0A0; sequences stand for … in GGGAAUGGAUCCACAUCUACGAAUUC…UUCACUGCAGACUUGACGAAGCUG
How it was run: as §1

biotinyl-Trp-oxazolone = assay: self-aminoacylation, catalytic enhancement (BWO) (fold over background); higher = more active; k-Seq, kA / k0A0; sequences stand for … in GGGAAUGGAUCCACAUCUACGAAUUC…UUCACUGCAGACUUGACGAAGCUG
How it was run: as §1

| Sequence | self-aminoacylation (biotinyl-Val-oxazolone) | self-aminoacylation (biotinyl-Phe-oxazolone) | self-aminoacylation (biotinyl-Ile-oxazolone) | self-aminoacylation (biotinyl-Met-oxazolone) | self-aminoacylation (biotinyl-Leu-oxazolone) | self-aminoacylation (biotinyl-Trp-oxazolone) |
| --- | --- | --- | --- | --- | --- | --- |
| AAGUUUGCUAAUAGUAGCACG [Fam3.1 aminoacylation ribozyme variant] | 0.764 | 1.39 | 0.814 | 0.733 | 0.619 | 0.766 |
| AAGUUUGCUAAUAGUCACGAG [Fam3.1 aminoacylation ribozyme variant] | 1.22 | 1.54 | 1.26 | 1.33 | 0.881 | 1.34 |
| AAGUUUGCUAAUAGUCACUAG [Fam3.1 aminoacylation ribozyme variant] | 0.939 | 1.1 | 1.08 | 0.981 | 0.836 | 1.13 |
| AAGUUUGCUAAUAGUCCCGAG [Fam3.1 aminoacylation ribozyme variant] | 1.27 | 1.54 | 1.22 | 1.28 | 1.31 | 2.65 |
| AAGUUUGCUAAUAGUCGAAUG [Fam3.1 aminoacylation ribozyme variant] | 0.903 | 1.48 | 1.09 | 1.17 | 0.88 | 1.17 |
| AAGUUUGCUAAUAGUCGCAGC [Fam3.1 aminoacylation ribozyme variant] | 0.913 | 1.11 | 1.17 | 0.956 | 0.821 | 1.99 |
| AAGUUUGCUAAUAGUCGCCAG [Fam3.1 aminoacylation ribozyme variant] | 0.997 | 1.41 | 1.02 | 1.03 | 0.962 | 1.39 |
| AAGUUUGCUAAUAGUCGCCCG [Fam3.1 aminoacylation ribozyme variant] | 2.69 | 9.34 | 3.76 | 2.98 | 3.87 | 3.76 |
| AAGUUUGCUAAUAGUCGCCGG [Fam3.1 aminoacylation ribozyme variant] | 4.14 | 10.5 | 3.08 | 5.01 | 3.53 | 5.77 |
| AAGUUUGCUAAUAGUCGCUAC [Fam3.1 aminoacylation ribozyme variant] | 0.697 | 0.82 | 0.54 | 0.57 | 0.476 | 0.666 |
| AAGUUUGCUAAUAGUCGGAAG [Fam3.1 aminoacylation ribozyme variant] | 1.03 | 14.8 | 1.13 | 1.16 | 0.934 | 4.58 |
| AAGUUUGCUAAUAGUCGUAAA [Fam3.1 aminoacylation ribozyme variant] | 1.04 | 2.23 | 0.909 | 0.973 | 0.826 | 1.01 |
| AAGUUUGCUAAUAGUCGUAAC [Fam3.1 aminoacylation ribozyme variant] | 0.822 | 1.02 | 0.726 | 0.658 | 0.68 | 0.778 |
| AAGUUUGCUAAUAGUCGUCAG [Fam3.1 aminoacylation ribozyme variant] | 0.905 | 2.16 | 0.795 | 0.638 | 0.715 | 1.26 |
| AAGUUUGCUAAUAGUCGUGAG [Fam3.1 aminoacylation ribozyme variant] | 1.04 | 2.86 | 1.19 | 1.31 | 1.13 | 2.15 |
| AAGUUUGCUAAUAGUCUCGAG [Fam3.1 aminoacylation ribozyme variant] | 0.95 | 2.01 | 1.06 | 1.02 | 1.14 | 1.96 |
| AAGUUUGCUAAUAGUGGCAAA [Fam3.1 aminoacylation ribozyme variant] | 1.04 | 0.91 | 1.09 | 0.891 | 0.789 | 1.24 |
| AAGUUUGCUAAUAGUGGCAAG [Fam3.1 aminoacylation ribozyme variant] | 0.739 | 0.894 | 0.737 | 0.734 | 0.692 | 0.773 |
| AAGUUUGCUAAUAGUUGGAAG [Fam3.1 aminoacylation ribozyme variant] | 1.25 | 1.47 | 1.29 | 1.38 | 1.21 | 0.896 |
| AAGUUUGCUAAUAUUAGCAAG [Fam3.1 aminoacylation ribozyme variant] | 1.24 | 1.2 | 1.28 | 1.32 | 1.08 | 1.3 |
| AAGUUUGCUAAUAUUCGCAAC [Fam3.1 aminoacylation ribozyme variant] | 1.17 | 0.972 | 1.15 | 1.22 | 1.11 | 2.36 |
| AAGUUUGCUAAUAUUCGCAGG [Fam3.1 aminoacylation ribozyme variant] | 1.31 | 1.32 | 1.35 | 1.68 | 1.4 | 2.04 |
| AAGUUUGCUAAUAUUCGCAUG [Fam3.1 aminoacylation ribozyme variant] | 1.19 | 1.47 | 1.14 | 1.19 | 1.08 | 0.844 |
| AAGUUUGCUAAUAUUCUCAAG [Fam3.1 aminoacylation ribozyme variant] | 1.18 | 1.04 | 1.1 | 1.17 | 1.15 | 1.48 |
| AAGUUUGCUAAUAUUGGCAAG [Fam3.1 aminoacylation ribozyme variant] | 0.784 | 0.81 | 0.773 | 0.894 | 0.847 | 1.22 |
